Data from IntAct's records for PubMed 16571665.

B1: Protein phosphatase 2C 77 (Arabidopsis thaliana (Mouse-ear cress)), O04719 (parent)
chain: MDEVSPAVAVPFRPFTDPHAGLRGYCNGESRVTLPESSCSGDGAMKDSSFEINTRQDSLTSSSSAMAGVDISAGDEINGSDEFDPRSMNQSEKKVLSRTESRSLFEFKCVPLYGVTSICGRRPEMEDSVSTIPRFLQVSSSSLLDGRVTNGFNPHLSAHFFGVYDGHGGSQVANYCRERMHLALTEEIVKEKPEFCDGDTWQEKWKKALFNSFMRVDSEIETVAHAPETVGSTSVVAVVFPTHIFVANCGDSRAVLCRGKTPLALSVDHKPDRDDEAARIEAAGGKVIRWNGARVFGVLAMSRSIGDRYLKPSVIPDPEVTSVRRVKEDDCLILASDGLWDVMTNEEVCDLARKRILLWHKKNAMAGEALLPAEKRGEGKDPAAMSAAEYLSKMALQKGSKDNISVVVVDLKGIRKFKSKSLN
partner: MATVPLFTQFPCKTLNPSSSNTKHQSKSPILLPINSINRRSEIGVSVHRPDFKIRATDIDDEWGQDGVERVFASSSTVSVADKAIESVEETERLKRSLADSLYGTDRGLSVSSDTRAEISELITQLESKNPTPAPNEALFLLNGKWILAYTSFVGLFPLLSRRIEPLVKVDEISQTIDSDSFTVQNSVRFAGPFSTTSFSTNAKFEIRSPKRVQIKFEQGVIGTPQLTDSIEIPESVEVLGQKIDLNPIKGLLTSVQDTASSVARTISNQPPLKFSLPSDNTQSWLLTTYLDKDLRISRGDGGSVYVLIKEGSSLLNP

Variants of: B1
Conditions: with pap1_arath PAP1, O81439

| effect of a mutation on the interaction | Variant |
| --- | --- |
| disrupting interaction strength | MDEVSPAVAVPFRPFTDPHAGLRGYCNGESRVTLPESSCSGDGAMKDSSFEINTRQDSLTSSSSAMAGVDISAGDEINGSDEFDPRSMNQSEKKVLSRTESRSLFEFKCVPLYGVTSICGRRPEMEDSVSTIPRFLQVSSSSLLDGRVTNGFNPHLSAHFFGVYDGHDGSQVANYCRERMHLALTEEIVKEKPEFCDGDTWQEKWKKALFNSFMRVDSEIETVAHAPETVGSTSVVAVVFPTHIFVANCGDSRAVLCRGKTPLALSVDHKPDRDDEAARIEAAGGKVIRWNGARVFGVLAMSRSIGDRYLKPSVIPDPEVTSVRRVKEDDCLILASDGLWDVMTNEEVCDLARKRILLWHKKNAMAGEALLPAEKRGEGKDPAAMSAAEYLSKMALQKGSKDNISVVVVDLKGIRKFKSKSLN [G168D] |

Variants of: B1
Conditions: with pap1_arath PAP1, O81439
Remark: another data set of the same source

| effect of a mutation on the interaction | Variant |
| --- | --- |
| disrupting interaction | MDEVSPAVAVPFRPFTDPHAGLRGYCNGESRVTLPESSCSGDGAMKDSSFEINTRQDSLTSSSSAMAGVDISAGDEINGSDEFDPRSMNQSEKKVLSRTESRSLFEFKCVPLYGVTSICGRRPEMEDSVSTIPRFLQVSSSSLLDGRVTNGFNPHLSAHFFGVYDGHDGSQVANYCRERMHLALTEEIVKEKPEFCDGDTWQEKWKKALFNSFMRVDSEIETVAHAPETVGSTSVVAVVFPTHIFVANCGDSRAVLCRGKTPLALSVDHKPDRDDEAARIEAAGGKVIRWNGARVFGVLAMSRSIGDRYLKPSVIPDPEVTSVRRVKEDDCLILASDGLWDVMTNEEVCDLARKRILLWHKKNAMAGEALLPAEKRGEGKDPAAMSAAEYLSKMALQKGSKDNISVVVVDLKGIRKFKSKSLN [G168D] |
